Laboratory results from US11058644 (WISCONSIN ALUMNI RESEARCH FOUNDATION, dated 2021).

Biological target: T1, epidermal growth factor receptor (EGFR) (UniProt P00533 25-1210, limits assumed)
T1 construct: whole, on cells; Endogenous receptor on MDA-MB-468 cells
Test: blocking of Cy5-NP uptake on MDA-MB-468 cells by 2 uM free GE11, fluorescence microscopy
Experimental: Cellular Uptake. The cellular uptake behaviors of the NPs in MDA-MB-468 TNBC cell lines were analyzed using a fluorescence microscope based on the Cy5 dye conjugated on the NPs. Cells were seeded (1×10^5 cells/ml) onto 8-well high-optical-quality plates and grown overnight. Cells were treated with either non-targeted NPs, targeted NPs, or targeted NPs with free GE11 peptide (2 µM; blocking assay) at an NP concentration of 100 µg/ml. After 2 h incubation, cells were washed with PBS twice, fixed with 4% PFA, and stained with DAPI for 4 h. Then the cells were mounted with Prolong Gold anti-fade reagent. The cellular uptake was observed using a fluorescence microscope (Nikon, Melville, N.Y.). Digital monochromatic images were acquired using NIS-Elements BR Software.
In Vitro Cellular Uptake. EGFR is overexpressed in many common types of cancer. Here, an EGFR targeting peptide, GE11, was used as an active-tumor-targeting ligand to enhance cellular uptake. MDA-MB-468, a TNBC cell line that overexpresses EGFR, was used as the model cell line. Cells were incubated with either non-targeted (i.e., NPs without GE11 conjugation) or targeted (i.e., GE11 conjugated) NPs for 2 h. Cells without any treatment were used as a negative control. Cy5 was conjugated onto the NPs. Fluorescence imaging analysis was performed to compare cellular uptake. […]

B1: GE11 peptide (YHWYGYTPQNVIGGGGC) (peptide)
peptide: YHWYGYTPQNVIGGGGC
notes: also called free GE11; EGFR targeting peptide
binding result: binds
